Experimental data published in PMC10402027 (bioRxiv, 2023).

Target: T1, progesterone receptor, B isoform (PR-B) (UniProt P06401 1-933)
T1 sequence: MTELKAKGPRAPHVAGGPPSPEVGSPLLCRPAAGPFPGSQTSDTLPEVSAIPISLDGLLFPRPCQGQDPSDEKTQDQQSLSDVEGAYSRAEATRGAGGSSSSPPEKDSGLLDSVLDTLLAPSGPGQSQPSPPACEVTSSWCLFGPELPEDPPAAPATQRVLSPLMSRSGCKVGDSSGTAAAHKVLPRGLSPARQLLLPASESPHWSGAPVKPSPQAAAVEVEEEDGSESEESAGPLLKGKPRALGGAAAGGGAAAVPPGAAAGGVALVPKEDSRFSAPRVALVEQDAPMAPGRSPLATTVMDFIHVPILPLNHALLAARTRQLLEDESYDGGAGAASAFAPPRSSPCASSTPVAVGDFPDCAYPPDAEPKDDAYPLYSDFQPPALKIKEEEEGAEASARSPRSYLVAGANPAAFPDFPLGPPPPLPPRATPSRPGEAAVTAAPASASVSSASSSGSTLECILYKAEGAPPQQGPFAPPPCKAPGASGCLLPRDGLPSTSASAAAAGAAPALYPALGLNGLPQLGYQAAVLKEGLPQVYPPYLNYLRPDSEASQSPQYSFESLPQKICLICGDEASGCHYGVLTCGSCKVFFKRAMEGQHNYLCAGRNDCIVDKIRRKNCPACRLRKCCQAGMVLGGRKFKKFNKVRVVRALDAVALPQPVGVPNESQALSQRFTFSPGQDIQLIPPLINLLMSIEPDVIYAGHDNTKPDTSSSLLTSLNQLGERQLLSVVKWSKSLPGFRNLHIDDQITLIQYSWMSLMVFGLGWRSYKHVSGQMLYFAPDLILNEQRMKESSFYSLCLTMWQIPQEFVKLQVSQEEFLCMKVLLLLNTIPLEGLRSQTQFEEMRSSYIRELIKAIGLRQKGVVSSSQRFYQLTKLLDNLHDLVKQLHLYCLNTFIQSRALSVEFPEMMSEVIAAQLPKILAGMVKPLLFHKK
Experiment: FRET or BRET

B1: estrogen receptor alpha Y537S (ERα Y537S) (receptor)
chain: MTMTLHTKASGMALLHQIQGNELEPLNRPQLKIPLERPLGEVYLDSSKPAVYNYPEGAAYEFNAAAAANAQVYGQTGLPYGPGSEAAAFGSNGLGGFPPLNSVSPSPLMLLHPPPQLSPFLQPHGQQVPYYLENEPSGYTVREAGPPAFYRPNSDNRRQGGRERLASTNDKGSMAMESAKETRYCAVCNDYASGYHYGVWSCEGCKAFFKRSIQGHNDYMCPATNQCTIDKNRRKSCQACRLRKCYEVGMMKGGIRKDRRGGRMLKHKRQRDDGEGRGEVGSAGDMRAANLWPSPLMIKRSKKNSLALSLTADQMVSALLDAEPPILYSEYDPTRPFSEASMMGLLTNLADRELVHMINWAKRVPGFVDLTLHDQVHLLECAWLEILMIGLVWRSMEHPGKLLFAPNLLLDRNQGKCVEGMVEIFDMLLATSSRFRMMNLQGEEFVCLKSIILLNSGVYTFLSSTLKSLEEKDHIHRVLDKITDTLIHLMAKAGLTLQQQHQRLAQLLLILSHIRHMSNKGMEHLYSMKCKNVVPLSDLLLEMLDAHRLHAPTSRGGASVEETDQSHLATAGSTSSHSLQKYYITGEAEGFPATV
Question: How did the “fold of the progesterone-induced increase in NanoBRET proximity against ERα WT” value turn out when B1 was run?
Answer: Its value is roughly 2 fold.
